Patent US20220306719A1 (JULIUS MAXIMILIANS UNIVERSIT T W RZBURG, published 2022)
“And” between values parts separate entries of the source, which are not always exact repeats. Identical values can stand only once.

B1: anti-MiH antibody #1 (antibody, V domains shown)
VH: QVQLLESGPGLVAPSQTLSITCTVSGFSFTNYDLHWVRQPPGKGLEWLGVIWAVGSTNYNSALMSRLSISKDNSKSQVFLKMNSLQTDDTAIYYCAREEDYRYGMDYWGQGTSVTVSS
VL: ELVMTQSPLSLPVSLGDQASISCRSSQSLVHSNGNTYLHWYLQKPGQSPKLLIYKVSNRFSGVPDRFSGSGSGTDFTLKISRVEAEDLGVYFCSQSTHVPYTFGGGTKLEIK
B2: anti-MiH antibody #1-ADC (anti-MiH antibody #1 conjugated to an anthracycline-based cytotoxic payload) (antibody, V domains shown)
VH: B1 VH
VL: B1 VL
modifications: conjugated to an anthracycline-based cytotoxic payload (chain and site not stated)

What was measured:
Test in all cases: cell-based or functional assay
[1] = molecular target: CD19_IgG3_MiH4 CAR (FMC63 scFv, IgG3_MiH4 spacer, CD28tm, 4-1BB/CD3zeta) (human)
[2] = molecular target: CD19_IgG3_MiH5 CAR (FMC63 scFv, IgG3_MiH5 spacer, CD28tm, 4-1BB/CD3zeta) (human)
[3] = molecular target: CD19_IgG3_MiH3 CAR (FMC63 scFv, IgG3_MiH3 spacer, CD28tm, 4-1BB/CD3zeta) (human)
[4] = molecular target: CD19_IgG3_MiH1 CAR (FMC63 scFv, IgG3_MiH1 spacer, CD28tm, 4-1BB/CD3zeta)
[5] = molecular target: CD20_IgG3_MiH5/MiH3 CAR (advanced IgG3 format, Leu16 scFv)
[6] = molecular target: CD19_IgG3_MiH5/MiH1 CAR (advanced IgG3 format: FMC63 scFv with MiH5 linker between the variable domains, MiH1 …)
[7] = molecular target: R11_IgG3_MiH5/MiH3 CAR (advanced IgG3 format, ROR1-specific R11 scFv)
[8] = molecular target: R11_IgG3_MiH3 CAR (ROR1-specific R11 scFv, IgG3_MiH3 spacer)
Sequence of R11_IgG3_MiH3 CAR (ROR1-specific R11 scFv, IgG3_MiH3 spacer) (chain, as listed by the source): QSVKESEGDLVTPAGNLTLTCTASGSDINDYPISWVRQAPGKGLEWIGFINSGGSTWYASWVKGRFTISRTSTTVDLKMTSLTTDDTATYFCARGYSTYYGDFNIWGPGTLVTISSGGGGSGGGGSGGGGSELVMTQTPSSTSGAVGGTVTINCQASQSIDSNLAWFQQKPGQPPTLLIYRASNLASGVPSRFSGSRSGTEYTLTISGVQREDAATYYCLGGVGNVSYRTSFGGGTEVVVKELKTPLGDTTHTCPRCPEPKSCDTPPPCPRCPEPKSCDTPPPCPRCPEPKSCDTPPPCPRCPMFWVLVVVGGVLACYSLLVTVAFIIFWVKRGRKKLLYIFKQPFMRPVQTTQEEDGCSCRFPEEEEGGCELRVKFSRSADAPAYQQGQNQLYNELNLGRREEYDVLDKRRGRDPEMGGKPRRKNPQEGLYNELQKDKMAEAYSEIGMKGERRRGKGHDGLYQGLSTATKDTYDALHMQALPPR

Sequence of CD19_IgG3_MiH5 CAR (FMC63 scFv, IgG3_MiH5 spacer, CD28tm, 4-1BB/CD3zeta) (human) (chain, as listed by the source): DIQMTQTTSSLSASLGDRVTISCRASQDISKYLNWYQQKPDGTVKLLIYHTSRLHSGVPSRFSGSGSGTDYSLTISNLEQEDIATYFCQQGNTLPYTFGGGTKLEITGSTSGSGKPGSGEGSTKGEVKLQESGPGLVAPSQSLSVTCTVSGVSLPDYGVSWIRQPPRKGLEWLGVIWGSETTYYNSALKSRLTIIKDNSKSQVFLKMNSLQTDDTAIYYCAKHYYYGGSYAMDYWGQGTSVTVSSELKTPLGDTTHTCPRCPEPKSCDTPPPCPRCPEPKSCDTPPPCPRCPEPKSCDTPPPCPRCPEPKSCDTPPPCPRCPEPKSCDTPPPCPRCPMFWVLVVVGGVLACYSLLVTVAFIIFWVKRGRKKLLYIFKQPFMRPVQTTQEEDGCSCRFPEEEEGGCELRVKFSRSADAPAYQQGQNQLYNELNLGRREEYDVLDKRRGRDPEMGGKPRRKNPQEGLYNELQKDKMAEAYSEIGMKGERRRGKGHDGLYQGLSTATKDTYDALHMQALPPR
Sequence of CD19_IgG3_MiH4 CAR (FMC63 scFv, IgG3_MiH4 spacer, CD28tm, 4-1BB/CD3zeta) (human) (chain, as listed by the source): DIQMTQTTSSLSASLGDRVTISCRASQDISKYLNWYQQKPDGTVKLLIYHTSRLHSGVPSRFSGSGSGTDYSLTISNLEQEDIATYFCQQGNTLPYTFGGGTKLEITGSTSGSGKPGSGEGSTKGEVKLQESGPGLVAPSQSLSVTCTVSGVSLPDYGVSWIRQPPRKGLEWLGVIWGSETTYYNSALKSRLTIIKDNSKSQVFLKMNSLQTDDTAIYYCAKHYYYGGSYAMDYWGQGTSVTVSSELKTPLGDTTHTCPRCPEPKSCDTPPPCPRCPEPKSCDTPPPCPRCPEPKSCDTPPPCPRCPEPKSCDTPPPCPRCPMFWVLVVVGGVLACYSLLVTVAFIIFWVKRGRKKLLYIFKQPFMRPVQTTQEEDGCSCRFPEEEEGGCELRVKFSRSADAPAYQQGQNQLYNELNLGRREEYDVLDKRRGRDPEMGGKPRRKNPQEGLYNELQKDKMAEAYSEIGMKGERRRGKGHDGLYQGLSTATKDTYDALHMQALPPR
Sequence of R11_IgG3_MiH5/MiH3 CAR (advanced IgG3 format, ROR1-specific R11 scFv) (chain, as listed by the source): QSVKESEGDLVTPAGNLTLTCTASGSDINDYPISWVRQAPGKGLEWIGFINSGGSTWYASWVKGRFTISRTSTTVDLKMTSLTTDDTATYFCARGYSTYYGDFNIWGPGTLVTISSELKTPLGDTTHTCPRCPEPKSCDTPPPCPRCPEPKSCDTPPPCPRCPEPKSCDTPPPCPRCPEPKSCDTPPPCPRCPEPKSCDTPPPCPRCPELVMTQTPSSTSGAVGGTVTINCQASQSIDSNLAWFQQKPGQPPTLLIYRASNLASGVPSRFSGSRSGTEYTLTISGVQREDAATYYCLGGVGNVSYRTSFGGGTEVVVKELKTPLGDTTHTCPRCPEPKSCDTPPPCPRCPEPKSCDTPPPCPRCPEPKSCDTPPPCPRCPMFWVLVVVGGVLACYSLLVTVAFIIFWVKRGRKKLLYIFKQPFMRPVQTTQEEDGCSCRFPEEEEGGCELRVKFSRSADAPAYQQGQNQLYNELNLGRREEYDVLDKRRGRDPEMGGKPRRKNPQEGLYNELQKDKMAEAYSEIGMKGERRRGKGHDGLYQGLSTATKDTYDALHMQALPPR
Sequence of CD20_IgG3_MiH5/MiH3 CAR (advanced IgG3 format, Leu16 scFv) (chain, as listed by the source): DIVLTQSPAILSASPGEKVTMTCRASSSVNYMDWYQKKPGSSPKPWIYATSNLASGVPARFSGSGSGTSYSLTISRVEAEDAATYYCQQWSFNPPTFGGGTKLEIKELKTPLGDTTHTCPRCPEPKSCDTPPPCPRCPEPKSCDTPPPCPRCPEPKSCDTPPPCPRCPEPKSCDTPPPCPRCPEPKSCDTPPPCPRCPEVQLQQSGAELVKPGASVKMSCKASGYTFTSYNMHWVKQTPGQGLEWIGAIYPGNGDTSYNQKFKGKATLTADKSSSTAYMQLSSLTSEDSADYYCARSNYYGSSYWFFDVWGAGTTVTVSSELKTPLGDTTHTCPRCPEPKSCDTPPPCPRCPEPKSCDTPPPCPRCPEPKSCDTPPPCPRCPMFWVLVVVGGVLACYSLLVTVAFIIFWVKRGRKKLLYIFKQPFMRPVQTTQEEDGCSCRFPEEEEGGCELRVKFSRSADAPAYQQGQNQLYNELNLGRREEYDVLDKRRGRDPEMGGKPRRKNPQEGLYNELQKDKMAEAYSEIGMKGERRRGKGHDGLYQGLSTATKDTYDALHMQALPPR
Sequence of CD19_IgG3_MiH3 CAR (FMC63 scFv, IgG3_MiH3 spacer, CD28tm, 4-1BB/CD3zeta) (human) (chain, as listed by the source): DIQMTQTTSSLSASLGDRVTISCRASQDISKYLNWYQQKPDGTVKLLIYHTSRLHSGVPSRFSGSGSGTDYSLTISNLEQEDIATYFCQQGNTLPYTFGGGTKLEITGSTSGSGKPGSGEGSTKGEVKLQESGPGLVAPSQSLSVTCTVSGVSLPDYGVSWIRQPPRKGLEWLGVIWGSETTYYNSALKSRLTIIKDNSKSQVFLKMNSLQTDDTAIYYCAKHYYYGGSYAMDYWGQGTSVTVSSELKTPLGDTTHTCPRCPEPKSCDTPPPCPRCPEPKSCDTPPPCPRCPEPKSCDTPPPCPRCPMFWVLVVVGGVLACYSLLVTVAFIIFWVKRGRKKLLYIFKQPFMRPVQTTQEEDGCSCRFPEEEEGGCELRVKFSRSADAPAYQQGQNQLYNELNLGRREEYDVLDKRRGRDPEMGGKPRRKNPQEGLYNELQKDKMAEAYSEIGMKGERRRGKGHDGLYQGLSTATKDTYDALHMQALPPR
Sequence of CD19_IgG3_MiH1 CAR (FMC63 scFv, IgG3_MiH1 spacer, CD28tm, 4-1BB/CD3zeta) (chain, as listed by the source): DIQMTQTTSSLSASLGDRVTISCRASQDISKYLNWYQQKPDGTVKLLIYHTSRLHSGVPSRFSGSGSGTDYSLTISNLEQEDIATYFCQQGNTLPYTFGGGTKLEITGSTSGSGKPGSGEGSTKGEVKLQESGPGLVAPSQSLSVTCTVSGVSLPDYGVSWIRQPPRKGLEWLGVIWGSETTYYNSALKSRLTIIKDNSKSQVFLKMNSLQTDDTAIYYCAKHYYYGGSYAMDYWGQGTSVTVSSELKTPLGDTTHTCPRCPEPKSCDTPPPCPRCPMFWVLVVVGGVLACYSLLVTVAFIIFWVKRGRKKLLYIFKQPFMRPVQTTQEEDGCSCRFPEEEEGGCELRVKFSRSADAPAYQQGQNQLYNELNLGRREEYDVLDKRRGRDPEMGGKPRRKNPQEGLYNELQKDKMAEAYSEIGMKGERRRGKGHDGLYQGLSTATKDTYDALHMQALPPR
Sequence of CD19_IgG3_MiH5/MiH1 CAR (advanced IgG3 format: FMC63 scFv with MiH5 linker between the variable domains, MiH1 …) (chain, as listed by the source): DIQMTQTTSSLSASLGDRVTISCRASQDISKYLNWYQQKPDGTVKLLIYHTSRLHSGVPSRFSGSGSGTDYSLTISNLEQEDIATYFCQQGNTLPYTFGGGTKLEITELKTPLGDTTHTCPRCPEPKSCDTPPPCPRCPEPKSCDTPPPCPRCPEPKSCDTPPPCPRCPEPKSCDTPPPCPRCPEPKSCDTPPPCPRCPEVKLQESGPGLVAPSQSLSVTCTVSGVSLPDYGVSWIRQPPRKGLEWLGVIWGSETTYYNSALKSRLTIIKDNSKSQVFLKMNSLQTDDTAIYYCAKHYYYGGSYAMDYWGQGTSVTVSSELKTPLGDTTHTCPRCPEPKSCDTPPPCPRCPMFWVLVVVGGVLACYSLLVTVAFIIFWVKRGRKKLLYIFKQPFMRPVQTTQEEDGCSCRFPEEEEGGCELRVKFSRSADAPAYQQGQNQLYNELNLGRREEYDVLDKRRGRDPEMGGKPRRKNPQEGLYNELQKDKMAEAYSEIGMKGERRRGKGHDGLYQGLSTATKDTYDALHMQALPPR

| Binder | expansion of CAR T cells after one week on plate-bound antibody [1] [fold] | expansion of CAR T cells after one week on plate-bound antibody [2] [fold] | increase in CAR T cell numbers after 7 days of stimulation on plate-bound antibody [3] [fold] | ADC concentration with the told effect on viable CAR T cells (72 h) [4] [µg/mL] | ADC concentration with the told effect on viable CAR T cells (72 h) [5] | ADC concentration with the told effect on viable CAR T cells (72 h) [6] [µg/mL] | ADC concentration with the told effect on viable CAR T cells (72 h) [1] [µg/mL] | ADC concentration with the told effect on viable CAR T cells (72 h) [7] | ADC concentration with the told effect on viable CAR T cells (72 h) [2] | ADC concentration with the told effect on viable CAR T cells (72 h) [8] | ADC concentration with the told effect on viable CAR T cells (72 h) [3] [µg/mL] |
| --- | --- | --- | --- | --- | --- | --- | --- | --- | --- | --- | --- |
| B1 | 4 | 4 | > 2 | – | – | – | – | – | – | – | – |
| B2 | – | – | – | 10 | 500 ng/mL and 5000 ng/mL | 5 | 5 | 500 ng/mL and 5000 ng/mL | 50 ng/mL and 5000 ng/mL | 500 ng/mL and 5000 ng/mL | 5 |
